Assay results reported in paper PMC4197964 (Genes & Development, 2014).

Biological target: MBP-Spt16 (budding yeast, UniProt P32558 1-1035)
Test: pull-down

Sequence of MBP-Spt16 (P32558 whole entry): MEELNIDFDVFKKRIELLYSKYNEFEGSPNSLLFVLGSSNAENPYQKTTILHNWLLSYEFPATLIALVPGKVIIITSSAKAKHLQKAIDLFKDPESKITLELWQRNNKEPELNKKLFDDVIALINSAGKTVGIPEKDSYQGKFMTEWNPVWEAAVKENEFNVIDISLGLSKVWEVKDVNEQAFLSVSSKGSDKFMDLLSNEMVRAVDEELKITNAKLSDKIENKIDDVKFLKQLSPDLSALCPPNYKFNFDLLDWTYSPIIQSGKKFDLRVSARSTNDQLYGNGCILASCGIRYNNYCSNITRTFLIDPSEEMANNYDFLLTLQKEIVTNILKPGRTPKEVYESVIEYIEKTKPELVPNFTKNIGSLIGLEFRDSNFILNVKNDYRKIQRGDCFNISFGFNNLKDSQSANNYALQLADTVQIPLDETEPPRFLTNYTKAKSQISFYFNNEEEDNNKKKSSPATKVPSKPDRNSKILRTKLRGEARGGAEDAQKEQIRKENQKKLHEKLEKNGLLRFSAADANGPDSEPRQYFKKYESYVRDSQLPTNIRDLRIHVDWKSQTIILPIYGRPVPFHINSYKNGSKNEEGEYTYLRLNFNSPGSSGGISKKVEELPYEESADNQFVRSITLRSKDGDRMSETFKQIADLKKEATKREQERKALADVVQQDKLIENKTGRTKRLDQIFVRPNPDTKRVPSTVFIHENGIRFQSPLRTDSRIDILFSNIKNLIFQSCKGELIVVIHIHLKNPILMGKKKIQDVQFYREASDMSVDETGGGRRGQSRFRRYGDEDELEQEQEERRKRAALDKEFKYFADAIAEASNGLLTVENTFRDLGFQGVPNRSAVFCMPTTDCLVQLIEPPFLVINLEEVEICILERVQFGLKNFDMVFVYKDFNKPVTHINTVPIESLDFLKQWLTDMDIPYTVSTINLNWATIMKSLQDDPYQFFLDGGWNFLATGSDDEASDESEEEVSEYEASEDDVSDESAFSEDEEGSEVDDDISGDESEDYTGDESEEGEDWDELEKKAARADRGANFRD

B1: GST-Psh1, full-length [FL (1-406)] (enzyme, budding yeast, UniProt Q12161 1-406, looked up)
chain: MGDELHNRLLHQNDGTKDAILYKIIESLVCSICHDYMFVPMMTPCGHNYCYGCLNTWFASNTQKELACPQCRSDITTIPALNTTLQQYLSFILEKLRDQNDESFKKLLTTKTKEENDYKNDKEKDTLFDKVFKNSALAVADDSDDGITRCSNCHWELDPDEVEDGNVCPHCNARIRNYAGGRDEFDEEEYSEGELDEIRESMRRRRENRFASTNPFANRDDVSSEDDDSSEEEPMREHIPLGRWARSHNRSIAVDAVDDEDDEEEDEEEEEEMDSDLKDFIEDDEDDEDEDGSRRNLVLSALKNRHVIITDDEEEEQRRHATEEEDRDSDFYEHNDDGFVSGDSLDEDQKEVTRIQSSSDSEDRSLSYSGSSDVKDNNDDNTEELDDPQPKRQKRFRVVLGDSDDE
binding result: binds
